System: K4 kissing-loop RNA reporter
Test: apparent KD of K4 kissing-loop reporter; higher = weaker reporter binding
Conditions: Eterna round: R107
Method: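 RNA-MaP round R107: designed RNA switches with theophylline, tryptophan, arginine or FMN aptamers are transcribed on-chip within common flanks. They are titrated with a labelled K4 kissing-loop RNA reporter in RNA-MaP buffer (100 mM Tris pH 7.5, 80 mM KCl, 4 mM MgCl2), without ligand or with the indicated ligand. Median apparent KD per design.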

[1] = input ligand: theophylline 20 uM
[2] = input ligand: tryptophan 2.4 mM
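Also: bound reporter read as fluorescence of individual clusters on recovered sequencing chips by microscopy, with normalized cluster intensities fitted with a binding model.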

Sequence	apparent KD of K4 kissing-loop reporter (input ligand: FMN 200 uM) [nM]	apparent KD of K4 kissing-loop reporter (input ligand: arginine 13.2 mM) [nM]	apparent KD of K4 kissing-loop reporter (input ligand: none) [nM]	apparent KD of K4 kissing-loop reporter [1] [nM]	apparent KD of K4 kissing-loop reporter [2] [nM]
CACGGAGUGAUGUUCCGACCGAGGAACGAUACCAGACAAGUAUACGUCCCUUGGCAGCGUUUCUUAUAUAGUCAACGUUACCGUA [Theo A Ex t3]	395	469	507	537	405
CAGAACUUAUAUAGAAACUAUAUAAGAGAUACCAGUCAAAUUAAAGACCCUUGGCAGCUCAGGCGAGUGAUGUUCGCAGGCUAAC [Astros-Gfrank-modulation#1]	99.3	94.2	102	106	78.8
CAUACGCAUGGAGGAUAUGAGAUUACUCAUAUUAUUUAAUAUUCUCAGUGAUGUUGAGAUAUAAACUCAGAAGGCCAUGUGUAUG [Ex FMN B 1]	184	152	143	166	153
CAUAGACAAGUGAUGUUUGUCAUAACCGAAGGAGCGUCGUUGAAGACAGGUAGGUCGCGGAUUAAUUUAGAUUAUAUUCUUUUUA [JR_SSArginiA_Sub020]	595	462	570	567	542
CCAGGAUGAUGAGGAUGAUGAAUUACUGAAGGAGCGCAUAUGGUUGCAGGUAGGUCGCGGUGAAUAAGUAUAGUGAUGUUAUGCC [SSArgA.X]	530	407	594	448	427
CCAUCCGAGUCGGCCGCCACUUUGAGUGAUGUUUGGAGUCUGAGUCAACAUAAAUACUUAGUUUAAAGGACCGGGACUUCGGAUG [theeternabot_exclusion_KL_Trp_B_7]	773	722	1020	1060	363
CCAUCGCUAUUCGAUACCAGCUAAAUAUAAUAUAACCAGUGAUGUUGGUAUAUAAAUAUAAGCCCUUGGCAGCGAAUAGUGAUGG [Theophylline B K4 30]	139	107	113	103	109
CCAUCGCUAUUCGAUACCAGUCUACGUAGGAAACUACGUCUGCAAAGGAGUGAUGUUCCAGACCCUUGGCAGCGAAUAGUGAUGG [Theophylline B K4 5]	969	689	792	589	900
CCAUUCUUUUACGAUACCAGUCUAAUAUAUUGAAUCAAAACCCUCGCCGAGUGAUGUUCGGACCCUUGGCAGCGUCUGCGAGAGG [xwxxtkmullin]	629	542	602	549	498
CCCUCACGAGUGAUGUUCGUAGGGUACAGUCAGGAUAUCAUGCGGUUGAGAAGGGACAGAGAGGGCGGCGGCGGGUUGCUCAUCU [Isanausbe]	197	217	325	266	215
CCGAGCUACAGCGAUACCAGUGUGGAGUGAUGUUCCCUGGUCCGGGCUGUUGUUCCCUUGCGCCCUUGGCAGCGCAGAAGCAGCU [Exclusion Theophylline B GF 14]	303	316	367	267	396

— the supplement of paper PMC9170038
